The record followed here is patent US20100216191A1, “Method for Manufacturing a Modified Peptide” (PROCOMCURE BIOTECH GMBH, priority 2007, published 2010).

Test [1] has as its target His-tagged recombinant ClfB protein (Staphylococcus aureus). As to the kind of experiment: pull-down competition on His-tagged ClfB beads, anti-GST Western blot, densitometry; competes with GST-tagged Frag2-CDS. Background: A western blot detects proteins with antibodies after separation by electrophoresis.
The target in test [2] is ClfB (clumping factor B of S. aureus, NCBI Protein GI 15925620) (Staphylococcus aureus), Q99R07. In words: cell-based or functional assay.
ClfB (clumping factor B of S. aureus, NCBI Protein GI 15925620) (Staphylococcus aureus), Q99R07, sequence (Q99R07 45-841 limits assumed): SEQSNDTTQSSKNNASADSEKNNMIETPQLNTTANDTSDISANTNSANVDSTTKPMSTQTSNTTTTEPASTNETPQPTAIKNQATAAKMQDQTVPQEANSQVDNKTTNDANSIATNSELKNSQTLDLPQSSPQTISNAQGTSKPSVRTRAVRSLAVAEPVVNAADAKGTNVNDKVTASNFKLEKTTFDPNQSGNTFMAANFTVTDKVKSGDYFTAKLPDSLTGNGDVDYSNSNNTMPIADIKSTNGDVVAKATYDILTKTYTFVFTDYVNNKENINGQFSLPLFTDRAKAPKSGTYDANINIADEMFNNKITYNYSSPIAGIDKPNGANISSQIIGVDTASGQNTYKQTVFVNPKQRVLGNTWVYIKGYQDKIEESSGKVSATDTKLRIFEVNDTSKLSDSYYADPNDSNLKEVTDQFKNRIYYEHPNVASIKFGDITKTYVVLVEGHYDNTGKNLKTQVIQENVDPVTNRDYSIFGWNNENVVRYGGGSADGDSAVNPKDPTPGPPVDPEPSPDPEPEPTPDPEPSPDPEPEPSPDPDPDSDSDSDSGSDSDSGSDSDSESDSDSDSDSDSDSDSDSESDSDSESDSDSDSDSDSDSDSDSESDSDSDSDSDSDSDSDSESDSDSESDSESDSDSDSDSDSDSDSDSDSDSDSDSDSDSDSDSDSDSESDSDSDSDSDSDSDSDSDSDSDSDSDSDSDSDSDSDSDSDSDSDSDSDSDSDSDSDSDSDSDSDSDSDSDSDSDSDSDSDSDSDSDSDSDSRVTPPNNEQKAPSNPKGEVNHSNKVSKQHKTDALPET

Some results are limits rather than exact numbers.

B1: IPEP-21SA (synthetic peptide of 21 amino acids) (peptide)
peptide: SYSLGSSFGSGAGSSSFSRTS
modifications: not checked
Turning to B1, the percent inhibition of the binding of GST-tagged keratin fragment to ClfB-protein at 1 µM peptide in test [1] turned out to be 40%.

B2: stronger binder (peptide SEQ ID NO 97) (peptide)
peptide: YSLGSSFGSGAGSSSLGRTSSSRAVVVK
modifications: not checked
Consider B2, for which the beta-galactosidase expression (X-Gal beta galactosidase overlay assay, Y2H) (% more than the original binder) in test [2] is above 50.

B3: more stronger binder (peptide SEQ ID NO 73) (peptide)
peptide: YSLGSSFGSGAGSSSSSRTSPSRAVVVK
modifications: not checked
In turn, B3 registered a beta-galactosidase expression (X-Gal beta galactosidase overlay assay, Y2H) (% more than the original binder) in test [2] above 100.
